Reference: US20250353888A1 (ENANTIS S R O, published 2025)

Biological target: FGF receptor 2b (FGFR2b) naturally expressed on 4MBr-5 rhesus monkey bronchial epithelial cells (rhesus monkey)
Assay: cell-based or functional assay

B1: FGF10 single-point mutant V123I (ligand)
chain: MGSSHHHHHHSSGLVPRGSHMLGQDMVSPEATNSSSSSFSSPSSAGRHVRSYNHLQGDVRWRKLFSFTKYFLKIEKNGKVSGTKKENCPYSILEITSVEIGVVAIKAINSNYYLAMNKKGKLYGSKEFNNDCKLKERIEENGYNTYASFNWQHNGRQMYVALNGKGAPRRGQKTRRKNTSAHFLPMVVHS
- ED50, proliferation of lung epithelial 4MBr-5 cells (resazurin): 0.4 ng/mL

B2: FGF10 single-point mutant Q175E (ligand)
chain: MGSSHHHHHHSSGLVPRGSHMLGQDMVSPEATNSSSSSFSSPSSAGRHVRSYNHLQGDVRWRKLFSFTKYFLKIEKNGKVSGTKKENCPYSILEITSVEIGVVAVKAINSNYYLAMNKKGKLYGSKEFNNDCKLKERIEENGYNTYASFNWQHNGREMYVALNGKGAPRRGQKTRRKNTSAHFLPMVVHS
- ED50, proliferation of lung epithelial 4MBr-5 cells (resazurin): 0.2 ng/mL

B3: FGF10 single-point mutant N181D (ligand)
chain: MGSSHHHHHHSSGLVPRGSHMLGQDMVSPEATNSSSSSFSSPSSAGRHVRSYNHLQGDVRWRKLFSFTKYFLKIEKNGKVSGTKKENCPYSILEITSVEIGVVAVKAINSNYYLAMNKKGKLYGSKEFNNDCKLKERIEENGYNTYASFNWQHNGRQMYVALDGKGAPRRGQKTRRKNTSAHFLPMVVHS
- ED50, proliferation of lung epithelial 4MBr-5 cells (resazurin): 1.6 ng/mL
